T1: hiR2-FL-G587N-T7 (human, UniProt Q6PJF5 1-856)
T1 sequence: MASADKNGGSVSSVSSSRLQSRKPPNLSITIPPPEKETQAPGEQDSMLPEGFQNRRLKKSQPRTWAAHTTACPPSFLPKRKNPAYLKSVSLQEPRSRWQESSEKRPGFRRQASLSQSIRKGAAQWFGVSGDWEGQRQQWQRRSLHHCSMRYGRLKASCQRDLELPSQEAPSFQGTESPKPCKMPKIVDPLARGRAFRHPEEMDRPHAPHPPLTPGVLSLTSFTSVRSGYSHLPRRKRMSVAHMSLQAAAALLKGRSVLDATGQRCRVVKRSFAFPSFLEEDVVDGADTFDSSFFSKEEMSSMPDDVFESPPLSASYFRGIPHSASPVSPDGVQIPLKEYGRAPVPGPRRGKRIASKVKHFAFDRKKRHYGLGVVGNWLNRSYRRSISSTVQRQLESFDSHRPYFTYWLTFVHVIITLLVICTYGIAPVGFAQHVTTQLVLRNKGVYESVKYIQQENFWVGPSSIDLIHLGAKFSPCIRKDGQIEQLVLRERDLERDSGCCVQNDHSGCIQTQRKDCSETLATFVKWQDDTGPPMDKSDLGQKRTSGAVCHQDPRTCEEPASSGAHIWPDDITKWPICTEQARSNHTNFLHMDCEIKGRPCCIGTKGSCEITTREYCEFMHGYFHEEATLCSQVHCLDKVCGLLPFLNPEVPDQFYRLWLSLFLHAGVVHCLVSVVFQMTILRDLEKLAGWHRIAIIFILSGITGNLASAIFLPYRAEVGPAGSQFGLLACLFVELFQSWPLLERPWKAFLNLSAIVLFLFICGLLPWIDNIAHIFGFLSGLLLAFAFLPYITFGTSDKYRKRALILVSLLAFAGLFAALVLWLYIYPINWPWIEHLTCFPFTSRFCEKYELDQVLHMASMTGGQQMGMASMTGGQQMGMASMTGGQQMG

B1: antibody 43 (antibody, V domains shown)
VH: QVALKESGPGILQPSQTLSLTCSFSGFSLSTFGMGVGWIRQSSGKGLEWLANIWWDDDKYYNPALKSRLTISKDASKNQAFLKIANVDTADTATYYCARIGNYGSNYWYFDVWGTGTTVTVSS
VL: QIVLTQSPAIMSASPGERVTMTCSANSRISYMYWYQQKPGSSPRLLIYDTSNLASGVPVRFSGSGSGTSYSLTISRMEAEDAATYNCQQWSSYPLTFGAGTKLELK
notes: mouse IgG, kappa light chain; also called clone #43; purified antibody 43
B2: antibody 48 (antibody, V domains shown)
VH: QVQLQQSGTELVRPGTSVKVSCKASGYAFTNYLIEWVKQRPGQGLEWIGVINPGSGFTKYNEKFKGKATLTADKSSSTVYMHLSSLTSEDSAVYFCARGLYRAMDYWGQGTSVTVSS
VL: DIQMTQSPASQSASLGESVTITCLASQTIATWLAWYQQKPGKSPQLLIYGATTLADGVPSRFSGGGSGTKFSFKISSLQAEDFVSYYCQQLYSTPYTFGGGTKLEIK
notes: mouse IgG, kappa light chain; also called clone #48; purified antibody 48
B3: antibody 50 (antibody, V domains shown)
VH: QVQLQQSGAELVRPGASVKVSCKASGYAFSNYLIEWVKQRPGQGLEWIGVINPGSGFTKYNEKFKGKATLTADKSSSTAYMQLSSLTSEDSAVYFCARGLYRAMDYWGQGTSVTVSS
VL: DIQMTQSPASQSASLGESVTITCLASQTIGTWLAWYQQKPGKSPQLLIYAAASLADGVPSRFSGGGSGTKFSFKISSLQAEDFVNYYCQQIYSTPYTFGGGTKLEIK
notes: mouse IgG, kappa light chain; also called clone #50; purified antibody 50

Biological target: T1, hiR2-FL-G587N-T7
Assay: FACS, MEF-DKO cells, 3 µg/ml
Excerpt: In brief, immortalized MEF-DKO hiR2-FL-G563D-T7, MEF-DKO hiR2-FL-A564P-T7, MEF-DKO hiR2-FL-1566E-T7, MEF-DKO hiR2-FL-D569E-T7, MEF-DKO hiR2-FL-E579K-T7, MEF-DKO hiR2-FL-Q580N-T7, MEF-DKO hiR2-FL-A581S-T7, MEF-DKO hiR2-FL-R582A-T7, MEF-DKO hiR2-FL-S583G-T7, MEF-DKO hiR2-FL-G587N-T7, MEF-DKO hiR2-FL-F588H-T7, MEF-DKO hiR2-FL-L589P-T7, MEF-DKO hiR2-FL-E594V-T7, MEF-DKO hiR2-FL-K596T-T7, MEF-DKO hiR2-FL-S607R-T7, MEF-DKO hiR2-FL-T612S-T7, MEF-DKO hiR2-FL-E617D-T7, MEF-DKO hiR2-FL-H620R-T7, MEF-DKO hiR2-FL-L636M-T7, MEF-DKO hiR2-FL-K638D-T7, MEF-DKO hiR2-FL-1771F-T7, MEF-DKO hiR2-FL-1825V-T7, MEF-DKO hiR2-FL-1828V-T7, MEF-DKO hiR2-FL-N829R-T7, MEF-DKO hiR2-FL-W830C-T7, MEF-DKO hiR2-FL-P831E-T7, MEF-DKO hiR2-FL-I833C-T7, MEF-DKO hiR2-FL-H835F-T7, MEF-DKO hiR2-FL-F8391-T7, MEF-DKO hiR2-FL-S843D-T7, MEF-DKO hiR2-FL-Q853A-T7, MEF-DKO hiR2-FL-V854Q-T7 and MEF-DKO hiR2-FL-R844K-T7 cells were harvested with 10 mM EDTA in PBS, washed and resuspended in FACS buffer (PBS, 3% FBS, 0.05% sodium azide), and seeded in Nunc U-bottom 96-well plates (Thermo Fisher Scientific, USA) at approximately 1×10⁵ cells per well. To pellet cells and remove supernatants, the plates were centrifuged at 1,500 rpm and 4° C. for 3 minutes. For primary staining, cells were resuspended in 100 μl per well of either FACS buffer alone (controls) or the purified antibodies 3, 5, 16, 22, 34, 42, 43, 44, 48, and 50 of the invention at 3 μg/ml in FACS buffer and incubated on ice for 1 hour. Afterwards, plates were centrifuged at 1,500 rpm and 4° C. for 3 minutes and washed twice with 200 μl per well of FACS buffer. For secondary staining, cells were spun down and resuspended in 100 μl per well of PE-conjugated goat anti-mouse IgG F(ab′)2 detection fragment (Dianova, Germany) diluted 1:100 in FACS buffer. Protected from light, the cell suspensions were incubated on ice for 1 hour. Plates were then centrifuged at 1,500 rpm and 4° C. for 3 minutes and washed three times with 200 μl per well of FACS buffer. Finally, cells were resuspended in 150 μl per well of FACS buffer and analyzed using a BD Accuri™ C6 Plus flow cytometer (Becton Dickinson, Germany).

Binder	loss of binding vs wild type [%]
B1	≥ 30
B2	≥ 60
B3	≥ 60

— patent US20240287172A1 (SCIRHOM, published 2024)
